B1: Z051 (BRA138_59) (antibody, V domains shown)
VH: QVQLQESGPGLVKPSQTLSLTCTVSGVSISSGGYYYSWFRQLPGKGLEWIGHIYYTGNTHYNPSLRSRLTISVDTSKNQFSLKLSSVTAADTARYYCARAWCEYAAYCWFDPWGRGTLVTVSS
VL: EIVLTQSPGTLSLSPGERATLSCRASQSVTSSYLAWYQHKPGQAPRLLIYGASSRAPGIPDRFSGSGSGTDFTLTISRLEPEDFAVYWCQQYGRSPFTFGQGTKLEIK
B2: Z016 (MEX84_p2-55) (antibody, V domains shown)
VH: QVQLVQSGAEVKKPGASVKLSCKASGYTFTSYYVHWVRQAPGQGLEWMGIINPGNNFVSFAQNFYDRATMTRDTSTNTVYMELTNLQSEDTAVYYCARTLVAPSAQSMYYFDFWGQGTLVTVSS
VL: EIVLTQSPGTLSLSPGERGTLSCRASQYITTGHFAWYQQKPGRAPRLLIYGASVRATGVPDRFSGSGAETDFTLTISRLDPEDVGVYYCQQYGSSPVTFGPGTKVDIK
B3: Z005 (MEX18_13) (antibody, V domains shown)
VH: EVQLLESGGGLVQPGGSLRLSCAASGFTFSSYAMSWVRQAPGKGLEWVSSFSGIDDSTWYADSVKGRFTISRDNSKSTLYLQMNSLRAEDTAVYYCAKDRLVRGFAEVLDYWGRGTLVTVSS
VL: DIQMTQSPSSLSASVGDRVTITCRASQDISKYLAWYQQRPGKVPNLLIYTASTLQSGVPSRFSGSGSGTHFTLTISSLQPEDVATYYCQKYNSVPWTFGQGTKVEIK
B4: Z007 (MEX105_50) (antibody, V domains shown)
VH: EVQLLESGGGLVRPGGSLRLSCTASGFTFRRYAMAWVRQAPGKGLEWVSLIYDGDDSTYYAKSVKGRFAISRDNSKNTLSLQMNSLRAEDTAVYYCVKDRDNGWSSIVDWGQGTLVTVSS
VL: DIQMTQSPSTLSASVGDRVTITCRASHSISGWLAWYQQKPGKAPKLLIYQASILESGVPSRFSGSGSGTEFTLTIGSLQPEDFATYFCQQYSTFWTFGQGTKVEIK
B5: Z009 (MEX105_64) (antibody, V domains shown)
VH: EVQLLESGGGLVRPGGSLRLSCTASGFTFRRYAMAWVRQAPGKGLEWVSLIYNGDDSTYYAESVKGRFTVSRDNSQNTLSLQMNSLRAEDTAIYYCVRDRDNGWSSIVDWGQGTLVTVSS
VL: DIQMTQSPSTLSASVGDRVTITCRASRTIGSWLAWYQQKPGKAPKLLIYQASILEGGVPSRFSGSVSGTEFTLTIRSLQPEDFATYFCQQYSTFWTFGQGTKVEIK
B6: Z008 (MEX105_60) (antibody, V domains shown)
VH: EVQLLESGGGLVRPGGSLRLSCTASGFTFRRFAMAWVRQAPGKGLEWVSLIWNGDDSTYYAESVRGRFTISRDNSHNTLSLQMRSLRAEDTAIYYCVKDRDNGWSSIVDWGQGTLVTVSS
VL: DIQMTQSPSTLSASVGDRVTITCRASQTIGNWLAWYQQKPGKAPKLLIYQASVLESGVPSRFSGSGSGTEFTLTISSLQPEDFATYFCQQYSTFWTFGQGTKVEIK
B7: Z061 (BRA112_36) (antibody, V domains shown)
VH: EVQLVESGGGVVQPGRSLRLSCAASGFTFSISTIHWVRQAPGKGLEYVVVISHDGNTKYYADSVKGRFIISRDNSKNTVFLQMNSLRPVDTAVYYCARGEVGYFDLWGRGTLVTVSS
VL: EIVLTQSPATLSLSPGERATLSCRASQSVSSFLAWYQQKPGQPPRLLIYDASTRATGIPARFSGSGSGTDFTLTISSLEPEDFAVYYCQQRSNWPPITFGQGTRLEIK
B8: Z057 (MEX84_p4-54) (antibody, V domains shown)
VH: EVQLVQSGAEVKRPGASVKVSCKASGYTFADYYIHWVRQAPGLGLEWMGWINPKTGFSHYEQTFQGRVTMARDTSIPAAYMELSSLKSDDTAIYYCARGGRINVAEALRYWGQGSLVTVSS
VL: DIQMTQSPSTLSTFVGDRVTITCRASQTIGDWLAWYQQKPGKAPKLLISKATRLESGVPSRFSGSGSETEFSLTINSLQPDDVAAYYCQQYMSYPWTFGQGTKLEIK
B9: Z050 (BRA138_28) (antibody, V domains shown)
VH: QVQLVQSGAEVKKPGSSVKVSCKAPGGTFSRYSIAWVRQAPGQGLEWMGGINPTFTTPNYAQKFQGRVTITADESTNTAYLDLSSLRSEDTAVYYCARFRYYYESGGYSDASPYYLDYWGQGTLVTVSS
VL: EIVLTQSPATLSLSPGERVTLSCRASQSVSSYLAWYQQKPGQAPRLLIYDASNRATGIPARFTGSGSGTDFTLTISSLEPEDFAVYYCQQRSNWPLTFGGGTKVEIK
B10: Z036 (BRA112_91) (antibody, V domains shown)
VH: EVQLLESGGDLVQPGGSLRLSCAASGFTFSTYGMAWVRQAPGKGLEWLSSISSVDDSKYYAASVKGRFTISRDNSRNTLYLHMNSLRVDDTAVYYCAKDRIPHGLGELYANWGQGTLVTVSS
VL: DIQMTQSPSTLSASVGDRVTITCRASQSISGWLAWYQQKPGKAPRLLMHKASNLYSGVPSRFSGSGSGTEFTLTISSLQPDDFATYYCQHYHSYPYTFGQGTKVEIK
B11: Z056 (MEX84_p2-94) (antibody, V domains shown)
VH: EVQLVQSGAEVKKPGASVKVSCKASGNTFMGYYFHWVRQAPGQGLEWMGWINPNSGHANIAQTFQGRVTMTRDPSITTAYMELSRLRSDDTAVFYCARGGMLGQLWALDNWGQGTLVTVSS
VL: DIQMTQSPSTLSASVGDRVTITCRASQSISHWLAWYQQRPGEAPKLLIYQASTLESGVPSRFSGSGSGTEFTLSISSLQPDDFATYYCQQYQSSPYTFGQGTKLEIK
B12: Z055 (MEX84_p4-61) (antibody, V domains shown)
VH: EVQLVQSGAEVKKPGASVKVSCKASGYTFSGYYIHWLRQAPGQGLEWMGWINSNSGGADSGPRFHGRVTMTRDTSINTAYLELTNLRSDDTAVYYCARRTYYDTRFPYWYFDLWGRGTLVTVSS
VL: AIRMTQSPSSLSASVGDRVTITCRASQDIGSYLNWYQQKPGKAPNVLISAASTLQSGVPSRISGIGSGTDFTLTISSLQPEDFATYYCQQSLSAPYTFGQGTKLEIK
B13: Z059 (MEX84_p4-34) (antibody, V domains shown)
VH: EVQLVQSGAEVKTPGSSVKVSCKTSGGTFSNFAITWVRQAPGQGLEWMGGIIPLFGITNYTQKFQGRVTITTDESKTTAYMDLSGLRSEDTAVYFCARGRDSSGRLLDHWGQGTLVTVSS
VL: EIVMTQSPATLSVSPGERATLSCRASQTVNRNLAWYQQKPGQAPRLLIYAASARATGVPARFSGSGSGTEFTLTISSLQSEDFVVYYCQQYNNWPPLTFGGGTKLEIK
B14: Z053 (BRA138_65) (antibody, V domains shown)
VH: QLQLQESGPGLVKPSETLSLTCTVSGGSISSYNYYWGWIRQPPGKGLEFIGSIYYTGSTYYNPSLRSRVTISVDTSKNQFSLKLTSVTAADTAVYYCARHGPGMGHNWYFDLWGRGTLVTVSS
VL: EIVLTQSPATLSLSPGERATLSCRASQSISSYLAWYQQKPGQAPRLLIYDASNRAPGIPARFSGSGSGTDFTLTISSLEPEDFAVYYCQQRSTWLTFGGGTKVEIK
B15: Z002 (MEX18_27) (antibody, V domains shown)
VH: EVQLLESGGGLVQPGGSLRLSCATSGFTFSTYAMSWVRQAPGKGLEWVSSFSGVDDSTYYAESVKGRFTISRDNSKNTVYLQMTRLRAEDTAVYYCAKDRGPRGVGELFDSWGQGTLVTVSS
VL: DIQMTQSPSTLSASVGDRVTMTCRASQSINRWLAWYQQKPGKAPKLLIYTTSTLKSGVPSRFSGSGSGTEFTLTISSLQPDDFATYYCQHFHSVPWTFGQGTKVEIK
B16: Z003 (MEX18_58) (antibody, V domains shown)
VH: EVQLLESGGGLVQPGGSLRLSCATSGFTFTTFAMSWVRQAPGKGLEWVSSISGADDSTYYAASVKGRFTISRDNSRSTLFLQMNSLRAEDTAVYYCAKDRGPRGVGELFDSWGQGTLVTVSS
VL: DIQMTQSPSTLSASVGDRVTITCRASQSISKWLAWYQQKPGKAPRLLIYTTSTLKSGVPSRFSGSGSGTEFTLTISSLQPDDFATYYCQHFFSVPWTFGQGTKVEIK
B17: Z011 (MEX105_15) (antibody, V domains shown)
VH: EVQLLESGGGLVQPGGSLRLSCAASGFTFRTYAMSWVRQPPGKGLEWVSSISAREDSTYFAASVRGRFTISRDNSKNTLYLQMNNLRAEDTALYYCAKDRLQLGVGELYESWGQGTLVTVSS
VL: DIQMTQSPSTLSASVGDRVTITCRASQNINSWLAWYQQKPGKAPKLLIYMASSLQSGVPSRFSGSGSGTEFTLTVSSLQPDDFATYYCQHYHSYPWTFGQGTKVEIK
B18: Z034 (BRA112_09) (antibody, V domains shown)
VH: EVQLLESGGGLAQPGGSLRLSCETSGFTFRSYGMGWVRQAPGKGLEWVSSIYISGDSTYYAASVKGRFTISRDNSKSTLYLQMDRLTAEDTAVYYCVRDRIQGGFGELYRYWGQGTLVTVSS
VL: DIQMTQSPSTLSASVGDRVTMTCRASQSVNKWLAWYQQKPGKAPKLLIYETSILESGVSSRFSGSGSGTEFTLTISSLQPDDFATYYCQHYHGYPWTFGQGTKVEIK
B19: Z052 (BRA138_62) (antibody, V domains shown)
VH: QVQLQESGPGLVKPSQTLSLTCTVSGGSITGGVYYWNWIRHHPGKGLEWIGYMFYSGDTDYNPSLRSRVTISGDTSKNKFSLNLNSVTAADTAVYYCARAGFDYGSPVSAFDIWGQGTLVTVSS
VL: EIVLTQSPATLSLSPGERATLSCRASQSVSSTYLVWYQQKPGQAPRLLIYGASSRATGIPDRFSGSGSGTDFTLTISRLEPEDFAVYFCQQYAHSPRGYTFGQGTKLEIK
B20: Z062 (BRA112_70) (antibody, V domains shown)
VH: EVQLVESGGGVVQPGRSLRLSCAASGFSFSSHAMYWVRQAPGKGLEWVAIVSYDGSTKNYADSVKGRFTISRDNSKNTIYLHLNSLRAEDTAVYFCAREVDGIYGYLHYWGQGTLVTVSS
VL: EIVLTQSPATLSLSPGERATLSCRARQNVRNFLAWYQQKPGQAPRLLIYDASNRATDIPARFSGSGSGTDFTLTISSLEPEDFAVYYCQQRSYSITFGQGTRLEIK
B21: Z004 (MEX18_89) (antibody, V domains shown)
VH: EVQLLESGGGLVQPGGSLRLTCATSGFTFRDYAMSWVRQAPGKGLEWVSSYSGIDDSTYYADSVKGRFTISRDNSKSTLSLHMNSLRAEDSALYFCAKDRGPRGVGELFDSWGQGTLVTVSS
VL: DIQMTQSPSTLSASVGDRVTITCRASQSISKWLAWYQQKPGKAPKLLIYTTSTLKSGVPSRFSGSGSGTEFTLTISSLQPDDFATYYCQHFYSVPWTFGQGTKVEIK

The target of the first assay is T1, ZIKV envelope domain III ([..]), polyhistidine-AviTag, made in HEK-293-6E cells (Zika virus (KJ776791)). In words: ELISA on ZIKV EDIII (Table A). Particulars: remark: other sources report otherwise. (In an ELISA, binding on a coated surface is turned into a signal by an enzyme label.)
A word on the EC50: it is the concentration needed to bring the measured effect to its halfway point. A lower EC50 goes with greater potency. B1: the EC50 was 1.86 µg/mL.

For the molecule B2, the EC50 was 0.0724 µg/mL.

Molecule B3 yielded an EC50 of 0.216 µg/mL. Still for that read-out and setting: the same measure for B4: 0.0346 µg/mL. As for B5, the EC50 stood at 0.0284 µg/mL. As to B6, the EC50 is 0.0326 µg/mL.

B7 yielded an EC50 of 0.311 µg/mL. Still for that read-out and setting: in the case of B8 it was 0.0828 µg/mL; in that of B9, 0.0303 µg/mL; in that of B10, 0.0172 µg/mL. Still for that read-out and setting: the same measure for B11: 0.982 µg/mL; for B12: 1.88 µg/mL; for B13: 0.61 µg/mL. Still for that read-out and setting: the same measure for B14: 1.68 µg/mL; for B15: 0.0252 µg/mL; for B16: 0.0255 µg/mL.

Consider B17, for which the EC50 was determined as 0.038 µg/mL. The same measure, in the same setting: the same measure for B18: 0.0235 µg/mL; for B19: 0.0131 µg/mL; for B20: 0.208 µg/mL.

Another assay has as its target T1, ZIKV envelope domain III ([..]), …. In words: ELISA, biotinylated Z004 on ZEDIII, streptavidin-HRP. The following applies: remark: other sources report otherwise.
Regarding B21, the EC50 worked out at 0.16 µg/mL.

These data come from patent US20220306729A1.
